Test results reported in patent CN114685670A (SHANGHAI LYOFIE MEDICAL SCIENCE AND TECH LIMITED COMPANY, dated 2022).
Each block holds one binder with its values, some of them ahead of it.

Tests used:
human CLDN18.2 [1] = molecular target: T1, human CLDN18.2 (human, UniProt P56856-2 1-261); experiment: flow cytometry on 18.2-K562 cells, 8-point antibody dilution, Anti-Human IgG FITC detection
T1 construct: whole, on cells; also called hCLDN18.2; Claudin 18.2
T1 sequence (looked up): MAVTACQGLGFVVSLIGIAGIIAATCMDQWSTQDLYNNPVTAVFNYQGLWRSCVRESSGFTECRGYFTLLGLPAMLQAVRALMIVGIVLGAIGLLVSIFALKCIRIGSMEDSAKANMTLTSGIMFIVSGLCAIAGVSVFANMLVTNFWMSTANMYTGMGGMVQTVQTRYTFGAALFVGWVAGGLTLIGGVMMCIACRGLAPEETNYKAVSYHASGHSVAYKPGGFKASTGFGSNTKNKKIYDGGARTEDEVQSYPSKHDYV

human CLDN18.2 [2] = molecular target: T1, human CLDN18.2; experiment: flow cytometry, hybridoma supernatant on CHO stable cells

抗体亲和力 (affinity from FACS titration, EC50-like) (human CLDN18.2 [1]): 0.675 µg/mL
B1: A8抗体 (as tested in Example 6) (antibody, V domains shown)
VH: QVQLQQPGAELVKPGASVKLSCKASGYTFTSYWMHWVRQRPGQGLEWIGMIHPNSGSTNYNGKFKSKATLTVDKSSSTAYMQLSSLTSEDSAVYFCARGGYYGNSLDFWGQGTSLTVSS
VL: DIVMTQSPSSLTVTAREKVTMSCKSSQSLLNSGNQKNYLTWYQQKPGQPPKLLIYWASTRESGVPDRFTGSGSGTDFTLTISSVQAEDLAVYYCQNAYSYPFTFGSGTKLEIK

binding result (human CLDN18.2 [2]): binds
B2: C18-16-1H1-1A8 (antibody, V domains shown)
VH: B1 VH
VL: DIVMTQSPSSLTVTAREKVTMSCKSSQSLLNSGNQKNYLTWYQQKPGQPPKLLIYWASTRESGVPDRFTGSGSGTDFTLTISSVQAEDLAVYYCQNAYSYPFTFGSGTKLEIKR
notes: also called A8抗体; C18-16-1H1-1A8重组抗体
